Columns and labels:
FGFR3 [1] = biological target: T1, FGFR3 (Homo sapiens, UniProt P22607); experiment: Affinity to FGFR3 measured by FACS; assay type: binding
FGFR3 [2] = biological target: T1, FGFR3; experiment: FDCP-FGFR3 proliferation assay performed with FGF9; assay type: cell-based; conditions: dimeric dHLX format

T1 sequence (P22607 23-806): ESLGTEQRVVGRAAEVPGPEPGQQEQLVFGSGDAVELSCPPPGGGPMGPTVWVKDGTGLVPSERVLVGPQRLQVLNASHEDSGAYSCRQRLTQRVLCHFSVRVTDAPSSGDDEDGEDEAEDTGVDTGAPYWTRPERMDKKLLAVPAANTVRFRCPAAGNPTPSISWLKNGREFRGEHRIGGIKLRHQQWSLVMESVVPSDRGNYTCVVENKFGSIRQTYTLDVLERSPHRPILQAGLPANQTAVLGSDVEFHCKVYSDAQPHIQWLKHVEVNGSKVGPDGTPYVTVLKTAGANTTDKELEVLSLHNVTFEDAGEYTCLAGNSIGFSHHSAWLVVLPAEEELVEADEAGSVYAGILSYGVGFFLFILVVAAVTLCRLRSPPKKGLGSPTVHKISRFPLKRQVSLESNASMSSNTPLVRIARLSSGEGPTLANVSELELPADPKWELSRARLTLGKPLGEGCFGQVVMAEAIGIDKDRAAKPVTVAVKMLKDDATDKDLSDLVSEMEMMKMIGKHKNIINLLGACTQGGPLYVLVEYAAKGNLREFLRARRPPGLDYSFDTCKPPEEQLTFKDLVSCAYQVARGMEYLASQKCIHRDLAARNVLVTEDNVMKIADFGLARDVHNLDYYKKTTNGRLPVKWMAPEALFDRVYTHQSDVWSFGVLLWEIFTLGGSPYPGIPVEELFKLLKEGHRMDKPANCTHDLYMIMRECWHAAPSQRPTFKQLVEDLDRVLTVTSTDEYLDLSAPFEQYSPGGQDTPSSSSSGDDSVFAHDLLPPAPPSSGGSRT

Molecule	Kd (FGFR3 [1]) [nM]	IC50 (FGFR3 [2]) [nM]
PRO-002: HuCAL clone anti-FGFR3 antibody; VH-CDR3 SEQ ID NO:2, VL-CDR3 SEQ ID NO:11 (antibody, V domains shown) VH: QVQLVQSGAEVKKPGASVKVSCKASGYTFTSYYMHWVRQAPGQGLEWMGWINPNSGGTNYAQKFQGRVTMTRDTSISTAYMELSSLRSEDTAVYYCARDFLGYEFDYWGQGTLVTVSS VL: DIELTQPPSVSVAPGQTARISCSGDALGDKYASWYQQKPGQAPVLVIYDDSDRPSGIPERFSGSNSGNTATLTISGTQAEDEADYYCQSYDYSADYVFGGGTKLTVLGQ	43	360
PRO-001: HuCAL clone anti-FGFR3 antibody; VH-CDR3 SEQ ID NO:1, VL-CDR3 SEQ ID NO:10; VH SEQ ID NO:19, VL SEQ ID NO:28 (antibody, V domains shown, SEQUENCE FROM PHAGE LIBRARY) VH: QVQLQQSGPGLVKPSQTLSLTCAISGDSVSSNSAAWNWIRQSPGRGLEWLGRTYYRSKWYNDYAVSVKSRITINPDTSKNQFSLQLNSVTPEDTAVYYCARSYYPDFDYWGQGTLVTVSS VL: DIELTQPPSVSVAPGQTARISCSGDALGDKYASWYQQKPGQAPVLVIYDDSDRPSGIPERFSGSNSGNTATLTISGTQAEDEADYYCQSYDGPDLWVFGGGTKLTVLGQ	0.7	19
PRO-029: HuCAL clone anti-FGFR3 antibody; VH-CDR3 SEQ ID NO:7, VL-CDR3 SEQ ID NO:16 (antibody, V domains shown) VH: QVQLVQSGAEVKKPGASVKVSCKASGYTFTSYYMHWVRQAPGQGLEWMGWINPNSGGTNYAQKFQGRVTMTRDTSISTAYMELSSLRSEDTAVYYCARTWQYSYFYYLDGGYYFDIWGQGTLVTVSS VL: DIVLTQSPATLSLSPGERATLSCRASQSVSSSYLAWYQQKPGQAPRLLIYGASSRATGVPARFSGSGSGTDFTLTISSLEPEDFATYYCQQTNNAPVTFGQGTKVEIKRT	< 1	20
PRO-054: HuCAL clone anti-FGFR3 antibody; VH-CDR3 SEQ ID NO:8, VL-CDR3 SEQ ID NO:17 (antibody, V domains shown) VH: QVQLVQSGAEVKKPGASVKVSCKASGYTFTSYYMHWVRQAPGQGLEWMGWINPNSGGTNYAQKFQGRVTMTRDTSISTAYMELSSLRSEDTAVYYCARNMAYTNYQYVNMPHFDYWGQGTLVTVSS VL: DIELTQPPSVSVAPGQTARISCSGDALGDKYASWYQQKPGQAPVLVIYDDSDRPSGIPERFSGSNSGNTATLTISGTQAEDEADYYCQSYDYFKLVFGGGTKLTVLGQ		45
PRO-026: HuCAL clone anti-FGFR3 antibody; VH-CDR3 SEQ ID NO:6, VL-CDR3 SEQ ID NO:15 (antibody, V domains shown) VH: QVQLVQSGAEVKKPGASVKVSCKASGYTFTSYYMHWVRQAPGQGLEWMGWINPNSGGTNYAQKFQGRVTMTRDTSISTAYMELSSLRSEDTAVYYCARGYWYAYFTYINYGYFDNWGQGTLVTVSS VL: DIALTQPASVSGSPGQSITISCTGTSSDVGGYNYVSWYQQHPGKAPKLMIYDVSNRPSGVSNRFSGSKSGNTASLTISGLQAEDEADYYCQSYDNNSDVVFGGGTKLTVLGQ	1.4	70
PRO-055: HuCAL clone anti-FGFR3 antibody; VH-CDR3 SEQ ID NO:9, VL-CDR3 SEQ ID NO:18 (antibody, V domains shown) VH: QVQLVQSGAEVKKPGASVKVSCKASGYTFTSYYMHWVRQAPGQGLEWMGWINPNSGGTNYAQKFQGRVTMTRDTSISTAYMELSSLRSEDTAVYYCARSMNSTMYWYLRRVLFDHWGQGTLVTVSS VL: DIALTQPASVSGSPGQSITISCTGTSSDVGGYNYVSWYQQHPGKAPKLMIYDVSNRPSGVSNRFSGSKSGNTASLTISGLQAEDEADYYCQSYDMYNYIVFGGGTKLTVLGQ		34

Source: patent US20080044419A1, “Treatment of T Cell Mediated Diseases by Inhibition of Fgfr3” (Fibron Ltd., priority 2003, published 2008)
